The text below walks through data of PMC7895437.

The target of one test is golgin A3 (UniProt Q08378). The experiment in a line: anti-FLAG co-IP, golgin A3 Western blot. Particulars: reference: Cα L206R, vehicle; sites S114.
The target in test [1] is PKA regulatory subunit IIβ, FLAG-tagged (RIIβ-FLAG) (human) (UniProt P31323). The experiment in a line: co-IP.
Chain of UniProt P31323 (P31323 whole entry): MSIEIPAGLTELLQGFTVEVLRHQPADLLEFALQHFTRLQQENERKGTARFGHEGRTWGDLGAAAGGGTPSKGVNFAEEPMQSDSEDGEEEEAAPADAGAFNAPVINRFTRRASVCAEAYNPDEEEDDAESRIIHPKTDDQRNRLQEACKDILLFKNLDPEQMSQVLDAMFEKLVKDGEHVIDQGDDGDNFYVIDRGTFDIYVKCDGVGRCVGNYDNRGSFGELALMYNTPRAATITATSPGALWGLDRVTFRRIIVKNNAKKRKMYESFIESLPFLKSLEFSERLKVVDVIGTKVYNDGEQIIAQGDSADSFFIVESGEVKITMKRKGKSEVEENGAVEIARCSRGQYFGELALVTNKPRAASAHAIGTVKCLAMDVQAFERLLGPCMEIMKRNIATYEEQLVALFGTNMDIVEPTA

For the substance “RIIβ (PKA regulatory subunit IIβ) (from UniProt P31323) Cα L206R, 8-Br-cAMP”, the “other: densitometry, relative units” value in the test with golgin A3 is “lost; reference 1.8 ± 0.2”.

In turn, “golgin A3 (from UniProt Q08378 1-1498) (natural protein)” came in with a densitometry of golgin A3 co-precipitated with RIIβ-FLAG (WB) in test [1] of 1.8.
